Data from PMC6807164, “The lipid transfer protein Saposin B does not directly bind CD1d for lipid antigen loading” (Wellcome Open Research, 2019).
Blank lines part the entries; values can stand above or below the molecule they belong to.

Columns and labels:
CD14 (Homo sapiens) = CD14 (Homo sapiens) (UniProt P08571); settings: cited from earlier work
[1] = molecular target: Apolipoprotein B (Homo sapiens) (UniProt P04114); settings: cited from earlier work
[2] = molecular target: T1, CD1d-β2m complex (glycosylated CD1d-H6 with untagged β2m) (human, UniProt P15813 20-301; P61769 21-119, glycosylated (N-linked glycans from expression in HEK293F)); assay: equilibrium binding assay (depletion of prey from the supernatant, no wash steps); CD1d-β2m on Ni-NTA agarose beads at 0-40 μM, SapB at 680 nM; 50 mM HEPES pH 7.0, 150 mM NaCl, 0.05% digitonin, 2.5 mM CaCl2, 2.5 mM MgCl2; 1 hour at room temperature; unbound SapB detected by SYPRO Ruby; both proteins with the endogenous lipids they co-purify with; settings: both partners purified
T1 construct: CD1d, human, extracellular domain, residues 20-301 of UniProt P15813; expressed behind the vector's N-terminal secretion signal; β-2-microglobulin, human, residues 21-119 of UniProt P61769; untagged; Carries endogenous human lipids as purified; The results call β2m full-length, the methods give residues 21-119; also called CD1d-H 6-β 2m; gCD1d; not shown: His6, C-terminal, kept

Chain of Apolipoprotein B (Homo sapiens) (P04114 28-2179): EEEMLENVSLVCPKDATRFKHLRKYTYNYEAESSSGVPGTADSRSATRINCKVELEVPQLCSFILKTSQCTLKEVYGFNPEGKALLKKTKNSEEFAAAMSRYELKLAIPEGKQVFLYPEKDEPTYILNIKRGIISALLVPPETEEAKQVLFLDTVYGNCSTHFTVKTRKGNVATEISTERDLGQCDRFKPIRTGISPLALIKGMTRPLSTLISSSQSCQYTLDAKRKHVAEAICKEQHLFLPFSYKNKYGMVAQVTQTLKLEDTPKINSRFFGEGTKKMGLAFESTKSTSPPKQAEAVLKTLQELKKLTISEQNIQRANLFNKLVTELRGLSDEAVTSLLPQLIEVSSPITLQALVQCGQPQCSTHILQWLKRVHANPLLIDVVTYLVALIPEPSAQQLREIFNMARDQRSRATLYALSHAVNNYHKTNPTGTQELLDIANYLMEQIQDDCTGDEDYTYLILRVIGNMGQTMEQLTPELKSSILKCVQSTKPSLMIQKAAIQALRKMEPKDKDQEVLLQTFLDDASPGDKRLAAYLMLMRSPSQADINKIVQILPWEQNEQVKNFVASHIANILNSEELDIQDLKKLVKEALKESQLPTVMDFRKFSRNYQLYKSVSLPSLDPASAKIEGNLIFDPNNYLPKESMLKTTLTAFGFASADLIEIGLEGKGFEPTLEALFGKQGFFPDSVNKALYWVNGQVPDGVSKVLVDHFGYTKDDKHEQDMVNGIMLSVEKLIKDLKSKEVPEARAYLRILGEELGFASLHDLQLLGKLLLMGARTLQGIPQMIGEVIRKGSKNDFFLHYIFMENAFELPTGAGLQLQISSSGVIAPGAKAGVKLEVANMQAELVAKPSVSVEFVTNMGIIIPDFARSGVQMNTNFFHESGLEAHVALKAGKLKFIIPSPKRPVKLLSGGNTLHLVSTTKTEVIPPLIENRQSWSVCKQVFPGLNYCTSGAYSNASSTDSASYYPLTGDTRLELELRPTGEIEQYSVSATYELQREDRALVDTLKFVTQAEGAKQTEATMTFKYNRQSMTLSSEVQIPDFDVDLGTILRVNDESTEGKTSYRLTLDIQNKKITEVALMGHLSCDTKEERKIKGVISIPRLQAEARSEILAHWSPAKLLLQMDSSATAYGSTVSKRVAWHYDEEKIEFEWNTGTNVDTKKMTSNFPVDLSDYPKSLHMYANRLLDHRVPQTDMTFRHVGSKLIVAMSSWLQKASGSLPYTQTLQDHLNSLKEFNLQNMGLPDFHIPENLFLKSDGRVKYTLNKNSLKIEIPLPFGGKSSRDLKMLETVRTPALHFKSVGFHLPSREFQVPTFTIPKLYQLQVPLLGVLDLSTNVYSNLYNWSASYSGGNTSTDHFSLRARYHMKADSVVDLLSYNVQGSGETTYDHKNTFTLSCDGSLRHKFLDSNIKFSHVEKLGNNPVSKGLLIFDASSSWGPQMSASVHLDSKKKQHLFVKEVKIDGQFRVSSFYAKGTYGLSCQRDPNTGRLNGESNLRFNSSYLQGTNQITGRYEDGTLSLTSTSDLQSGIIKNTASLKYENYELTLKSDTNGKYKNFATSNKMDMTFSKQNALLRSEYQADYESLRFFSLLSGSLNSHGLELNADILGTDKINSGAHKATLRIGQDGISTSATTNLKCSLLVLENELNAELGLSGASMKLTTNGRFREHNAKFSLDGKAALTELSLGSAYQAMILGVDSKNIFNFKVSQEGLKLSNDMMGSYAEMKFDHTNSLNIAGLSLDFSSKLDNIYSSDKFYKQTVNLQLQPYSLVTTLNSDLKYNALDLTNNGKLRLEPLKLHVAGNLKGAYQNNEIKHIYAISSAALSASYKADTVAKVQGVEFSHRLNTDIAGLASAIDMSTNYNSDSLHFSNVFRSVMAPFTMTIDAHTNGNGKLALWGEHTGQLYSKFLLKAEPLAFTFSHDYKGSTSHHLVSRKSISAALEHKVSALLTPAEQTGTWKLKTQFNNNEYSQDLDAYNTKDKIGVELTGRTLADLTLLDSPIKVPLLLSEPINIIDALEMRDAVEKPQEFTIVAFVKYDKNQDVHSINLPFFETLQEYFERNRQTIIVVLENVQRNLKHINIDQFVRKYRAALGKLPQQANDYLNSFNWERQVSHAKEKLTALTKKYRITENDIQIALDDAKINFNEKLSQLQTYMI
Chain of CD14 (Homo sapiens) (P08571 20-345): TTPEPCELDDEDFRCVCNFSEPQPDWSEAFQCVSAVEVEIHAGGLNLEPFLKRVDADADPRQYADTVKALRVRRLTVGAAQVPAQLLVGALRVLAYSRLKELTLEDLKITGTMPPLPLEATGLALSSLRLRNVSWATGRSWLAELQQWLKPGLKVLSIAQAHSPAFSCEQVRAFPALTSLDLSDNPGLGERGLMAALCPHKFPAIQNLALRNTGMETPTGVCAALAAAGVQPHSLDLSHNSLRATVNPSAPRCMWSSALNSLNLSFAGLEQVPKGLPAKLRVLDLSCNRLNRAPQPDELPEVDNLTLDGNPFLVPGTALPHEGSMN

Molecule: LPS binding protein (LBP) (from UniProt P18428)
Kd (CD14 (Homo sapiens)): 5.52 nM

Molecule: Microsomal Triglyceride Transfer protein (from UniProt P55157)
Kd [1]: 20 nM

Kd [2]: > 40000 nM
B1: Saposin B, untagged, expressed in E. coli (unglycosylated) (natural protein, human, UniProt P07602 195-274, looked up)
chain: GDVCQDCIQMVTDIQTAVRTNSTFVQALVEHVKEECDRLGPGMADICKNYISQYSEIAIQMMMHMQPKEICALVGFCDEV
notes: Saposin B, the segment of human prosaposin (PSAP) residues 195-274, UniProt P07602; Cloned into pET-15b by NcoI and XhoI to give untagged protein; Co-purifies with E. coli lipid; also called SapB; ugSapB; source: E. coli Origami (DE3), purified (heat treatment, anion exchange, SEC)
